Reference: article PMC11570840

Legend:
[1] = biological target: β2-adrenergic receptor C terminally fused with RlucII (β2AR-RlucII) (UniProt P07550); assay: FRET or BRET; live HEK293 cells co-transfected with donor β2AR-RlucII and acceptor NES-Venus-mGs, -mGsi or -mGsq; 48 h after transfection stimulated 20 min with increasing concentrations of ISO; 5 μM coelenterazine H in PBS; data as % of maximal ISO-induced mGs recruitment
[2] = biological target: β2-adrenergic receptor C terminally fused with RlucII (β2AR-RlucII) (UniProt P07550); assay: FRET or BRET; live HEK293 cells co-transfected with donor β2AR-RlucII and acceptor NES-Venus-mGsq; stimulated 20 min with increasing concentrations of ISO, epinephrine, norepinephrine or formoterol; data as % of maximal ISO-induced mGsq recruitment

| efficacy of ISO-induced recruitment, % of mGs [1] [%] | efficacy of recruitment with epinephrine, % of ISO [2] [%] | efficacy of recruitment with formoterol, % of ISO [2] [%] | efficacy of recruitment with norepinephrine, % of ISO [2] [%] | Substance |
| --- | --- | --- | --- | --- |
| 60 | – | – | – | NES-Venus-mGsi (mini G protein mGsi) |
| 20 | 60 | 80 | 40 | NES-Venus-mGsq (mini G protein mGsq) |
